For experiment [1], the target named is Commercial, Control Toxin B wt (List Biologicals) (Clostridium difficile, UniProt P18177 2-2366). Put plainly: dot blot, non-denaturing.
For experiment [2], the target named is wild-type C. difficile toxin B (TcdB wt, from List Bio) (C. difficile strain 630, UniProt P18177 2-2366). Description: dot blot, nondenaturing.

These results are taken from patent publication US20210024903A1 (Pfizer, published 2021).

Chain of Commercial, Control Toxin B wt (List Biologicals) (P18177 2-2366 limits assumed): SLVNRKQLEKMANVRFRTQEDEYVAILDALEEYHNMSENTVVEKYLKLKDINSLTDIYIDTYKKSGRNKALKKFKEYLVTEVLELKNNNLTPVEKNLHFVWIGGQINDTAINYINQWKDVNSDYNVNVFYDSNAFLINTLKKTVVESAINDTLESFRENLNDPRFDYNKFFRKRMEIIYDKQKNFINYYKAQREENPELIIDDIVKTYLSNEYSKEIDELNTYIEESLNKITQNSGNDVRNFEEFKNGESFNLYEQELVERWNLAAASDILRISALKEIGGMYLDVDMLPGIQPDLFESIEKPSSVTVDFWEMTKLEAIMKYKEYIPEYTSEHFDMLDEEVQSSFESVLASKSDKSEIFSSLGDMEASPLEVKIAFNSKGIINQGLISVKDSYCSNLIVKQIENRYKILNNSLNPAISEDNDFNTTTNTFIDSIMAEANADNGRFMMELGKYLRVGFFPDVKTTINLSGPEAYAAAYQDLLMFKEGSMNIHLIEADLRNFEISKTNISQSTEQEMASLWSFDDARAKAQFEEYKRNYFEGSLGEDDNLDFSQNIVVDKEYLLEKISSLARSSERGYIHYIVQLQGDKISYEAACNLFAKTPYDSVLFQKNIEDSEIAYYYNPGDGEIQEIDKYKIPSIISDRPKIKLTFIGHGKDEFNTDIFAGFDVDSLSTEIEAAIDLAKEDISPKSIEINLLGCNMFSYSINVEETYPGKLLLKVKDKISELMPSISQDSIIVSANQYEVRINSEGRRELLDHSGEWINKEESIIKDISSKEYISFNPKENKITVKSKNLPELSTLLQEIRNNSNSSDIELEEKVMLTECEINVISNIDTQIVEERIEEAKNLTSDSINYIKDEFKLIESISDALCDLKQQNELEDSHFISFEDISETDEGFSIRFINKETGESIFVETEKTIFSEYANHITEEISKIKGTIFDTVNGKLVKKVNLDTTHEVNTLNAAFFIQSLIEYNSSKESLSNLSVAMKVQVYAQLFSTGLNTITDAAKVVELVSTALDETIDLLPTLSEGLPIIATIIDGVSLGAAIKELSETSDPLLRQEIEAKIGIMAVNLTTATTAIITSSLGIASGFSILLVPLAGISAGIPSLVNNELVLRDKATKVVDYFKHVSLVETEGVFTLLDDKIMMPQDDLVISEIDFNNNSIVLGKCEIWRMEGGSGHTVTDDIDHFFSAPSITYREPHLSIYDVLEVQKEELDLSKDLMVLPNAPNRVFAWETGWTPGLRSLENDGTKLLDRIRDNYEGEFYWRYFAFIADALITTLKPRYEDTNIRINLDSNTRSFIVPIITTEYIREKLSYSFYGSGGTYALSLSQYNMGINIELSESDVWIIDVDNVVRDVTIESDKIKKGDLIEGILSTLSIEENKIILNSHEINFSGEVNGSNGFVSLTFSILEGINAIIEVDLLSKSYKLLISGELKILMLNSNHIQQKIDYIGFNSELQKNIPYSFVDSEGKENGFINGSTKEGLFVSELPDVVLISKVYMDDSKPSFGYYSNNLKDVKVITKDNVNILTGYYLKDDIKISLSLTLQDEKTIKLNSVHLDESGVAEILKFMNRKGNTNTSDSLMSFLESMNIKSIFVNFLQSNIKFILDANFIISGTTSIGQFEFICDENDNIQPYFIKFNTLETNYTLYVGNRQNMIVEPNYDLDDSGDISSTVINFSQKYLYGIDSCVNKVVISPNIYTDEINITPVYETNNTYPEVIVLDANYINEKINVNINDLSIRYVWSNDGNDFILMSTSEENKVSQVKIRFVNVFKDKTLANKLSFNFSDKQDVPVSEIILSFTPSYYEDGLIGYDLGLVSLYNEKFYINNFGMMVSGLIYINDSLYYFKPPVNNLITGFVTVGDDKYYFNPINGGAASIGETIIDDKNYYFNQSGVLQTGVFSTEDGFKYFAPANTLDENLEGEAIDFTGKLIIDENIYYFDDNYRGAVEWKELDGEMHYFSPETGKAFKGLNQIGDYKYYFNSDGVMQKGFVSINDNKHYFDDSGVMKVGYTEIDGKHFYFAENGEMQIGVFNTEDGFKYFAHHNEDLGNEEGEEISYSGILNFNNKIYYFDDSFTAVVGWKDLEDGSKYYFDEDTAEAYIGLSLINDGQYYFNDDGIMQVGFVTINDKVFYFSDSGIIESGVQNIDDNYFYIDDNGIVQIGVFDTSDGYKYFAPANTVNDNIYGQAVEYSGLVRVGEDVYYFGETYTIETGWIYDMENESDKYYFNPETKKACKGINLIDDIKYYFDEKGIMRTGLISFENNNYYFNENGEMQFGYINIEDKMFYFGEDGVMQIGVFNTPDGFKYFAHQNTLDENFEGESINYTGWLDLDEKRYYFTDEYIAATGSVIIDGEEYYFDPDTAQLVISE
Chain of wild-type C. difficile toxin B (TcdB wt, from List Bio) (P18177 2-2366 limits assumed): as above

B1: B9-30 (antibody, V domains shown)
VH: QVQLQQPGAEVVKPGAPVKLSCKASGYPFTNYWMNWVKQRPGRGLEWIGRIDPSNSEIYYNQKFKDKATLTVDKSSSTAYIQLSSLTSEDSAVYYCASGHYGSIFAYWGQGTTLTVSS
VL: VQITQSPSYLAASPGETITINCRASKSISKYLAWYQEKPGKTNKLLIYSGSTLQSGIPSRFSGSRSGTDFTLIISSLEPEDSAMYYCQQHNEYPLTFGAGTKLELKR
For the molecule B1, the binding result in experiment [1] is recorded as “binds”.

B2: B9-30 mAb (antibody, V domains shown)
VH: QVQLQQPGAEVVKPGAPVKLSCKASGYPFTNYWMNWVKQRPGRGLEWIGRIDPSNSEIYYNQKFKDKATLTVDKSSSTAYIQLSSLTSEDSAVYYCASGHYGSIFAYWGQGTTLTVSS
VL: VQITQSPSYLAASPGETITINCRASKSISKYLAWYQEKPGKTNKLLIYSGSTLQSGIPSRFSGSRSGTDFTLIISSLEPEDSAMYYCQQHNEYPLTFGAGTKLELKR
Consider B2, for which, in experiment [2], the binding result is listed as “binds”.
